Measurements: IntAct's records for PubMed 29039417

B1: Protein PTHB1 (Homo sapiens), Q3SYG4 (parent)
chain: MSLFKARDWWSTILGDKEEFDQGCLCLANVDNSGNGQDKIIVGSFMGYLRIFSPHPAKTGDGAQAEDLLLEVDLRDPVLQVEVGKFVSGTEMLHLAVLHSRKLCVYSVSGTLGNVEHGNQCQMKLMYEHNLQRTACNMTYGSFGGVKGRDLICIQSMDGMLMVFEQESYAFGRFLPGFLLPGPLAYSSRTDSFLTVSSCQQVESYKYQVLAFATDADKRQETEQQKLGSGKRLVVDWTLNIGEQALDICIVSFNQSASSVFVLGERNFFCLKDNGQIRFMKKLDWSPSCFLPYCSVSEGTINTLIGNHNNMLHIYQDVTLKWATQLPHIPVAVRVGCLHDLKGVIVTLSDDGHLQCSYLGTDPSLFQAPNVQSRELNYDELDVEMKELQKIIKDVNKSQGVWPMTEREDDLNVSVVVSPNFDSVSQATDVEVGTDLVPSVTVKVTLQNRVILQKAKLSVYVQPPLELTCDQFTFEFMTPDLTRTVSFSVYLKRSYTPSELEGNAVVSYSRPTDRNPDGIPRVIQCKFRLPLKLICLPGQPSKTASHKITIDTNKSPVSLLSLFPGFASQSDDDQVNVMGFHFLGGARITVLASKTSQRYRIQSEQFEDLWLITNELILRLQEYFEKQGVKDFACSFSGSIPLQEYFELIDHHFELRINGEKLEELLSERAVQFRAIQRRLLARFKDKTPAPLQHLDTLLDGTYKQVIALADAVEENQGNLFQSFTRLKSATHLVILLIALWQKLSADQVAILEAAFLPLQEDTQELGWEETVDAAISHLLKTCLSKSSKEQALNLNSQLNIPKDTSQLKKHITLLCDRLSKGGRLCLSTDAAAPQTMVMPGGCTTIPESDLEERSVEQDSTELFTNHRHLTAETPRPEVSPLQGVSE
partner: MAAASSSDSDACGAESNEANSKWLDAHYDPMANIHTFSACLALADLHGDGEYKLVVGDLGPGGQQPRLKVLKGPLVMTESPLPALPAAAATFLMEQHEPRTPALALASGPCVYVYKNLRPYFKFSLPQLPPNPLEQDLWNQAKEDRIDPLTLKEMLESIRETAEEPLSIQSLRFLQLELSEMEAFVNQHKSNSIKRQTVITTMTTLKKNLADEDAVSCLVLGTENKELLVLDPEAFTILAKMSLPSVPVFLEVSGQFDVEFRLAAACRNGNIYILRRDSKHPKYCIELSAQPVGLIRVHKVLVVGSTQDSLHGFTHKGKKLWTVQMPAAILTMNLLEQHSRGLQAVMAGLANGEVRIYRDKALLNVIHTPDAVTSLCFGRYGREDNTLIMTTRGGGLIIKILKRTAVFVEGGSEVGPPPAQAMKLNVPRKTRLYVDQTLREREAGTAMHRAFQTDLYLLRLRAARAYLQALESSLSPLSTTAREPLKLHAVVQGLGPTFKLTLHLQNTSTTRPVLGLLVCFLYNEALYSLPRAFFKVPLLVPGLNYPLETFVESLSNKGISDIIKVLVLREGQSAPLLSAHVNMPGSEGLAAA

Variants of: B1
Conditions: with bbs1_human BBS1, Q8NFJ9

Variant | effect of a mutation on the interaction
L531A | with no effect
L531E | with no effect
L531K | with no effect
K532A | with no effect
K532E | with no effect
L533A | with no effect
L533E | with no effect
L533K | with no effect
I534A | with no effect
I534E | with no effect
I534K | with no effect
C535A | with no effect
C535E | with no effect
C535K | with no effect
L536A | with no effect
L536E | with no effect
L536K | with no effect
P537A | with no effect
P537E | with no effect
P537K | with no effect
G538A | with no effect
G538E | with no effect
G538K | with no effect

Variant | effect of a mutation on the interaction
Q539A | with no effect
Q539E | with no effect
Q539K | with no effect
P540A | with no effect
P540E | with no effect
P540K | with no effect
S541A | with no effect
S541E | with no effect
S541K | with no effect
K542A | with no effect
K542E | with no effect
T543A | with no effect
T543E | with no effect
T543K | with no effect
A544E | with no effect
A544K | with no effect
S545A | with no effect
S545E | with no effect
S545K | with no effect
S545N | disrupting interaction strength
H546A | with no effect
H546E | with no effect
H546K | with no effect

Variant | effect of a mutation on the interaction
K547A | with no effect
K547E | with no effect
I548A | with no effect
I548E | with no effect
I548K | with no effect
T549A | with no effect
T549E | with no effect
T549K | with no effect
I550A | with no effect
I550E | with no effect
I550K | with no effect
D551A | with no effect
D551E | with no effect
D551K | with no effect
T552A | with no effect
T552E | with no effect
T552K | with no effect
N553A | with no effect
N553E | with no effect
N553K | with no effect
K554A | with no effect
K554E | with no effect
K554S | disrupting interaction strength

Variant | effect of a mutation on the interaction
S555A | with no effect
S555E | with no effect
S555K | with no effect
P556A | with no effect
P556E | with no effect
P556K | with no effect
V557A | with no effect
V557E | with no effect
V557K | with no effect
S558A | with no effect
S558E | with no effect
S558K | with no effect
L559A | with no effect
L559E | with no effect
L559K | with no effect
L560A | with no effect
L560E | with no effect
L560K | with no effect
S561A | with no effect
S561E | with no effect
S561K | with no effect
L562A | with no effect
L562E | with no effect

Variant | effect of a mutation on the interaction
L562F | disrupting interaction strength
L562K | with no effect
F563A | with no effect
F563E | with no effect
F563K | with no effect
P564A | with no effect
P564E | with no effect
P564K | with no effect
G565A | with no effect
G565E | with no effect
G565K | with no effect
G565P | disrupting interaction strength
G565S | disrupting interaction strength
F566A | with no effect
F566E | with no effect
F566K | with no effect
A567E | with no effect
A567K | with no effect
S568A | with no effect
S568E | with no effect
S568G | disrupting interaction strength
S568K | with no effect
Q569A | with no effect

Variant | effect of a mutation on the interaction
Q569E | with no effect
Q569K | with no effect
S570A | with no effect
S570E | with no effect
S570K | with no effect
S570L | disrupting interaction strength
D571A | with no effect
D571E | with no effect
D571K | with no effect
D572A | with no effect
D572E | with no effect
D572K | with no effect
D573A | with no effect
D573E | with no effect
D573K | with no effect
Q574A | with no effect
Q574E | with no effect
Q574K | with no effect
V575A | with no effect
V575E | with no effect
V575K | with no effect
N576A | with no effect
N576E | with no effect

Variant | effect of a mutation on the interaction
N576K | with no effect
V577A | with no effect
V577E | with no effect
V577K | with no effect
M578A | with no effect
M578E | with no effect
M578K | with no effect
G579A | with no effect
G579E | with no effect
G579K | with no effect
F580A | disrupting interaction strength
F580E | with no effect
F580K | with no effect
H581A | with no effect
H581E | with no effect
H581K | with no effect
F582A | with no effect
F582E | with no effect
F582K | with no effect
L583A | with no effect
L583E | with no effect
L583K | with no effect
G584A | with no effect

Variant | effect of a mutation on the interaction
G584E | with no effect
G584K | with no effect
G585A | with no effect
G585E | with no effect
G585K | with no effect
G585R | disrupting interaction strength
A586E | with no effect
A586K | with no effect
R587A | with no effect
R587E | with no effect
R587K | with no effect
R587T | disrupting interaction strength
I588A | with no effect
I588E | with no effect
I588K | with no effect
T589A | with no effect
T589E | with no effect
T589K | with no effect
V590A | with no effect
V590E | with no effect
V590K | with no effect
L591A | with no effect
